Results published in patent US11497805B2, “Toll-like receptor 2 agonists and vaccines and uses thereof” (The Provost, Fellows, Foundation Scholars & the Other …, priority 2014, dated 2022).

Legend:
[1] = system: bone marrow-derived DCs from TLR4-defective C3H/HeJ mice; test: Cytokine production by bone marrow-derived DC stimulated with BP1569 (ELISA); format: cell-based; conditions: BP1569 100 and 1000 ng/ml, 24 h
Method: (§1) Lipase-treated or untreated BP1569 (100 ng/ml) was used to stimulate BMDC from C3H/HeJ mice.
(§2) Bone marrow derived dendritic cells (DCs) were prepared by culturing bone marrow cells obtained from the femur and tibia of mice in complete RPMI (cRPMI, RPMI containing 10% fetal calf serum, 100 U/ml penicillin, 100 μg/ml streptomycin, 2 mM 1-glutamine (Invitrogen), and 50 μM 2-ME (Sigma-Aldrich) supplemented with GM-CSF 40 ng/ml. Cells were re-cultured with fresh medium containing 40 ng/ml GM-CSF every 3 d for a period of 8 d. DC were seeded at 1×10^6 cells per ml 24 hr prior to stimulation. ELISA assays were performed using R&D kits according to the manufacturer's instructions. Spleen cells from C3H/HeJ mice were seeded at 2×10^6 cells per ml and stimulated with Pam3Cys4 (120nM) or BP1569 (120 nM) for the indicated times, with or without addition of T2.5-anti-TLR2 antibody or an isotype control (Hycult Biotech). For p38 activation assays, samples were lysed with RIPA buffer and SDS-PAGE was performed followed by Western blotting with anti-phospho-p38 and β-actin antibodies (Cell Signaling).
(§3) The present inventors examined the capacity of pertussis lipoprotein to activate innate immune cells in vitro using bone marrow-derived DCs from TLR4-defective C3H/HeJ mice. […] Furthermore, stimulation of DCs with BP1569 for 24 hours enhanced surface expression of MHC class II, CD80 and CD86 detectable by flow cytometry (FIG. 2C).

[2] = system: DC from C3H/HeJ mice; test: DC maturation: surface expression of MHC class II, CD80, CD86 by flow cytometry; format: cell-based; conditions: 100 ng/ml, 24 hours vs medium only
Method: as §1
Following stimulation, DC were stained with CD11c (clone N418; eBioscience), MHCII (clone M5/114.15.2 ebioscience), CD80 (clone 16-10A1 eBioscience) and CD86 (clone […] eBioscience). Samples were analyzed with a FACS DIVA and FloJo software.
as §3

[3] = target: T1, TLR2 (Mus musculus, UniProt Q9EPQ1+Q9QUN7); test: BP1569-induced TNF-α production by DC with TLR2 blocking antibody; format: cell-based, mice; conditions: BP1569 100 ng/ml, 24 h, anti-TLR2 T2.5 2.5 μg/ml
T1 construct: Bone marrow derived dendritic cells (DCs) were prepared by culturing bone marrow cells obtained from the femur and tibia of mice; endogenous in cells; host or cells: bone marrow-derived dendritic cells from C3H/HeJ mice (A3, A25) or C57BL/6 mice (A13)
T1 sequence (Q9QUN7 25-784): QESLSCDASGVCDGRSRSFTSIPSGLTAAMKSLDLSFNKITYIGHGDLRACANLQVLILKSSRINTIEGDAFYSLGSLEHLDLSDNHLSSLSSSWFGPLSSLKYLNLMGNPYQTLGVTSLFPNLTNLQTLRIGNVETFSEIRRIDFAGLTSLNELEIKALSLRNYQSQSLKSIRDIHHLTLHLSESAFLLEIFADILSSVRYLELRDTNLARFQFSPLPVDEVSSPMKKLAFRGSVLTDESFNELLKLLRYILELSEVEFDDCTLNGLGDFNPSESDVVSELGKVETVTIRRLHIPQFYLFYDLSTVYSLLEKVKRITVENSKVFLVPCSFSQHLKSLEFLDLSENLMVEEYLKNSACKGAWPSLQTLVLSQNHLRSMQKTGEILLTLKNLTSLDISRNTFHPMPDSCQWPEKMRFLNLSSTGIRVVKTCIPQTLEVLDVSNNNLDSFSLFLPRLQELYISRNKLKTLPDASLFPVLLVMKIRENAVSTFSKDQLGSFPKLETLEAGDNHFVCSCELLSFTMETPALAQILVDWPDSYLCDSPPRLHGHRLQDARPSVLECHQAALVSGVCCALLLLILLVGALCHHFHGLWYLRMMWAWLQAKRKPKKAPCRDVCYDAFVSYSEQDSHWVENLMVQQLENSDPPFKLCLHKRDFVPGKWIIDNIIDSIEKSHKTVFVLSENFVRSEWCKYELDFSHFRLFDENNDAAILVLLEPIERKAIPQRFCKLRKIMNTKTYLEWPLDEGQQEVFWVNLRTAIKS
T1 sequence (Q9EPQ1 26-795): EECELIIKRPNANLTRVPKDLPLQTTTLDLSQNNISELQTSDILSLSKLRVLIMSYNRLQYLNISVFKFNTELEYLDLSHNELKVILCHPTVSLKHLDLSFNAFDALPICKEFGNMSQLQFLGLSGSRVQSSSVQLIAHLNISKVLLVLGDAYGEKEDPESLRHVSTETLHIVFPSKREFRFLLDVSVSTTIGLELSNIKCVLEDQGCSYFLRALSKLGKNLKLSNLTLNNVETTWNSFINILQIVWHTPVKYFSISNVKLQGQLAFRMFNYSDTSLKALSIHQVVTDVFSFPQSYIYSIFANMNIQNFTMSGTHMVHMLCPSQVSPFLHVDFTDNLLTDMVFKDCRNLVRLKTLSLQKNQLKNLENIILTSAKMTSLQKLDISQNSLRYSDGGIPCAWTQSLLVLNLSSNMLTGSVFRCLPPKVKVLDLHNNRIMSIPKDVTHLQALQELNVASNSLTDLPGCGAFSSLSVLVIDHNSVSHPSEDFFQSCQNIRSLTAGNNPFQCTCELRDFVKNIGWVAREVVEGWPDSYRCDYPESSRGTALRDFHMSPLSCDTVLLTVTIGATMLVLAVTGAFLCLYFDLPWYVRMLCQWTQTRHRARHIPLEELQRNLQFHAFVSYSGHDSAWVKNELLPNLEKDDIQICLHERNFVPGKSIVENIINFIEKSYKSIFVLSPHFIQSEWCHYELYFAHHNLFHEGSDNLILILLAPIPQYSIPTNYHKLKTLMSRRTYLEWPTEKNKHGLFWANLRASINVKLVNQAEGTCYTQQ
Method: as §1
(§4) Blocking antibodies were used against TLR2 to determine if the proteins can activate TLR2 specifically. […] Lipase treatment was used to confirm that the immunostimulatry effects of BP1569 were due the presence of the characteristic acyl side chain of the lipoprotein. The recombinant lipoprotein was incubated with two separate lipases for 18 h prior to stimulation of DC. Lipase treatment abolished BP1569-induced IL-12p40 and IL-6 production (FIG. 2E), but had no effect on cytokine production induced by the TLR9 agonist CpG (data not shown), confirming that BP1569 contains lipid side chains capable of triggering TLR2-induced inflammatory cytokine production.

[4] = system: BMDC from C3H/HeJ mice; test: Lipase treatment of lipoprotein before stimulation of DC; format: cell-based; conditions: lipase from Aspergillus or Pseudomonas, 18 h
Method: as §1, §4

[5] = target: T2, human TLR2 (Homo sapiens, UniProt O60603+Q15399); test: NF-κB luciferase reporter assay in HEK 293T cells stably expressing TLR2; format: cell-based; conditions: 100 ng/ml, HEK 293T-TLR2, devoid of TLR4
T2 construct: expressed in transfected cells; host or cells: HEK 293T
T2 sequence (O60603 21-784): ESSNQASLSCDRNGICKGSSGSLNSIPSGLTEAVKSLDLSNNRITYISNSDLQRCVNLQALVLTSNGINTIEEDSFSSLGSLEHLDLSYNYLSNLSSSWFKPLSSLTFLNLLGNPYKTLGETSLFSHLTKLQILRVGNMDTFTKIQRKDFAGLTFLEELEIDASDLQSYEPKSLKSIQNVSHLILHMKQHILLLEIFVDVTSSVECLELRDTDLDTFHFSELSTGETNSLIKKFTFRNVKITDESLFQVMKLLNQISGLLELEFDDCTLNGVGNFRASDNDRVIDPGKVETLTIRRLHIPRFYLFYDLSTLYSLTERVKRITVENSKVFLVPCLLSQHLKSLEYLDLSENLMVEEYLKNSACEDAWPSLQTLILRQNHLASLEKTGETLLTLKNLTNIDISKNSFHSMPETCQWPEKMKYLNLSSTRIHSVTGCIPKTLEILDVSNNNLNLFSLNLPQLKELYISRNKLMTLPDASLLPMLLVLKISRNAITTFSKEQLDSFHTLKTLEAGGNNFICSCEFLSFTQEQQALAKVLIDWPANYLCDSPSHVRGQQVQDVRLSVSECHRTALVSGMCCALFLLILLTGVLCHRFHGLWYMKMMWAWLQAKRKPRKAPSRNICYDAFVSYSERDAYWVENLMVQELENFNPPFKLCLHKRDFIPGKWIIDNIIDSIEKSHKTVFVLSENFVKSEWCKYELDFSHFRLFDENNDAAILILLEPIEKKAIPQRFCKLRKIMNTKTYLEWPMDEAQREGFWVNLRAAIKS
T2 sequence (Q15399 25-786): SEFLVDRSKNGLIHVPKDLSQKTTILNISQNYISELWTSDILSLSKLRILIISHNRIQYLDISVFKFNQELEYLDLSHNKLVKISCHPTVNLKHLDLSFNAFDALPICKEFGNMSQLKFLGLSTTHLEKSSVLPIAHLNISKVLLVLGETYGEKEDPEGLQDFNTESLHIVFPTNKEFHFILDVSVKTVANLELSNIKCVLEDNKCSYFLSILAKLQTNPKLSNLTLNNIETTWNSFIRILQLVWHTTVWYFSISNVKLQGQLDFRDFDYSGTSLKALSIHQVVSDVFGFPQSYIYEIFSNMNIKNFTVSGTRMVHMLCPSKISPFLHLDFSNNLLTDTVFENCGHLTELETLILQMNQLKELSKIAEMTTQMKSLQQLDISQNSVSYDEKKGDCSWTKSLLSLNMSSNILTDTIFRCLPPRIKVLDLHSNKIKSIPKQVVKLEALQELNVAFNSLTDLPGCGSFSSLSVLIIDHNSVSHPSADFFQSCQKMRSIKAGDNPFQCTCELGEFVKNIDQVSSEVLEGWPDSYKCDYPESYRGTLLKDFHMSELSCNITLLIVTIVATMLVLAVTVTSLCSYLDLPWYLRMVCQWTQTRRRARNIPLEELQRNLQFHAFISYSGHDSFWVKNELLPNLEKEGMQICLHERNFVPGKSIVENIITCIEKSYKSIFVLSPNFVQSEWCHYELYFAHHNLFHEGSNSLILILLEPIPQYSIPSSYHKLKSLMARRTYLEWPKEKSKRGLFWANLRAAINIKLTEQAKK
Method: (§5) Luciferase activity was quantified after 24 h. […] IL-8 production was quantified after 24 h. […] After 24 h, the concentrations of IL-6 in supernatants were determined by ELISA.
HEK 293T cells stably expressing human TLR2 were transfected with an NF-κB luciferase construct as described previously (21) and stimulated overnight with the indicated concentrations of BP1569.
(§6) Cytokine production by TLR2 requires activation of the transcription factors NF-κB and p38 MAP kinase. To determine if BP1569 activates NF-κB, HEK 293T cells stably expressing TLR2, but devoid of TLR4, were transfected with an NF-κB luciferase reporter construct. […] To assess activation of the MAP kinase pathway, spleen cells from C3H/HeJ mice were stimulated with BP1569. […] TLR agonists can bind to TLR1/2 or TLR2/6 heterodimers, therefore, the role of these TLRs using specific blocking antibodies to human TLR1 and TLR6 was examined.

[6] = target: T2, human TLR2; test: IL-8 production by TLR2 transfected HEK 293T cells; format: cell-based; conditions: HEK 293T-TLR2, 24 h
Method: as §5, §6

[7] = system: p38 MAP kinase; test: p38 phosphorylation in spleen cells (Western blot); format: cell-based; conditions: spleen cells from C3H/HeJ mice
Method: as §5, §2
Cytokine production by TLR2 requires activation of the transcription factors NF-κB and p38 MAP kinase. […]

[8] = target: T3, human TLR1 (Homo sapiens, UniProt O60603+Q15399); test: BP1569-induced IL-6 in human PBMC with TLR1 blocking antibody; format: cell-based; conditions: 100 ng/ml, 24 h
T3 construct: endogenous in cells; host or cells: human PBMC
T3 sequence (Q15399 25-786): as above
T3 sequence (O60603 21-784): as the sequence (O60603 21-784) above
Method: as §5, §6

[9] = target: T4, human TLR6 (Homo sapiens, UniProt Q9Y2C9); test: BP1569-induced IL-6 in human PBMC with anti-TLR6 antibody; format: cell-based; conditions: 100 ng/ml, 24 h
T4 construct: endogenous in cells; host or cells: human PBMC
T4 sequence (O60603 21-784 partner): as the sequence (O60603 21-784) above
T4 sequence (Q9Y2C9 32-796): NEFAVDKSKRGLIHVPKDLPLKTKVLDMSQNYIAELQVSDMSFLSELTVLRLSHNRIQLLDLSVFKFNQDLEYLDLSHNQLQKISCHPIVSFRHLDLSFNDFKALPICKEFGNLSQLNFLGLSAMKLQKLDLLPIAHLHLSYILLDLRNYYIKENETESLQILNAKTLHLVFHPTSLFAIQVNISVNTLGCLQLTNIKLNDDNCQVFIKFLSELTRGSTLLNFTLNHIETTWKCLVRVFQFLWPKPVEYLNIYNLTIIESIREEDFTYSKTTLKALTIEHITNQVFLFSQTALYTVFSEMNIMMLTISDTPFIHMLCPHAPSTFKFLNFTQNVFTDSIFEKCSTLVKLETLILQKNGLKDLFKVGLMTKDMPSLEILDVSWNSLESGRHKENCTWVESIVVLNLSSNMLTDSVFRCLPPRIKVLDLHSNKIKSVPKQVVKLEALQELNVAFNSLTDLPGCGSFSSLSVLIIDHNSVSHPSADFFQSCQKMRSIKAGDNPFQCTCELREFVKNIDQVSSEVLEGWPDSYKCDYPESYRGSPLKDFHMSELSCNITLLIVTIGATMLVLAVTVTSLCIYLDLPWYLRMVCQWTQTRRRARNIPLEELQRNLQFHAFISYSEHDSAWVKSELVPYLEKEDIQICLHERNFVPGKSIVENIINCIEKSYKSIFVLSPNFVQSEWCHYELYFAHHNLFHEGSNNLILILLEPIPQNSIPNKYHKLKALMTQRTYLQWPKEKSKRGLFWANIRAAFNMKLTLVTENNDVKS
Method: as §5, §6

[10] = system: C3H/HeJ mice; test: Cytokine induction in vivo by BP1569 (serum ELISA); conditions: 70 μg intraperitoneally, 3 h, versus PBS controls
Method: (§7) After 3 h serum IL-12 and IL-6 concentrations were quantified by ELISA. […] After seven days the draining lymph node was harvested and cells were stimulated with BP1569 (2 μg/ml). […] After seven days the draining lymph node was harvested and cells were stimulated with total heat killed B. pertussis 1-100×10^6/ml).
C3H/HeJ mice were treated intraperitoneally with BP1569 (70 μg) or PBS control and serum cytokines were measured by ELISA after 3h.
C3H/HeJ mice were treated intraperitoneally with BP1569 (70 μg) and serum cytokines were measured after 3 h.

[11] = system: C3H/HeJ mice; test: Antigenicity of BP1569: footpad immunization, lymph node cell re-stimulation; format: in vivo; conditions: 10 μg footpad
Method: as §7
C3H/HeJ mice were injected into the footpad with BP1569 (10 μg) diluted in PBS or with PBS only. After seven days the draining lymph node was harvested and the lymph node cells were stimulated with either BP1569 (2 μg/ml) or heat killed B. pertussis pertussis (1-100×10^6/ml). After 3 days of culture, the concentration of IFN-γ in supernatants was quantified by ELISA.
The possibility that BP1569 was immunogenic in vivo and capable of inducing B. pertussis-specific immune responses was examined. C3H/HeJ mice were injected into the footpad with BP1569 (10 μg) diluted in PBS or with PBS only. After seven days the draining lymph node was harvested and the lymph node cells were stimulated with either BP1569 (2 μg/ml) or heat killed B. pertussis.

[12] = system: TLR2; test: BP2992 activity as TLR2 ligand (data not shown)
Excerpt: C-terminal histidine versions of the putative lipoproteins were constructed and expressed in E. coli by IPTG induction. BP1569 and BP2992 were successfully expressed and purified by nickel affinity followed by ion-exchange chromatography. […] Therefore, the inventors adopted a strategy of carrying out all initial studies with lipoproteins in TLR4 defective cells or mice and then synthesized lipopeptide versions of the lipoproteins for more thorough immunological analysis.

[13] = system: dendritic cells from C3H/HeJ mice; test: BP2992 maturation and cytokine production by dendritic cells; format: cell-based; conditions: 24 h
Method: Lane 1: 5 ng BP2992; lane 2: 10 ng BP2992.

[14] = target: T1, TLR2; test: BP2992 cytokine production by DC with anti-TLR2 antibody; format: cell-based, mice; conditions: with or without anti-TLR2 T2.5 2.5 μg/ml, 24 hours
Method: After 24 hours IL-6 production was measured by ELISA. […] After 24 hours TNF-α production was measured by ELISA.

[15] = system: human peripheral blood mononuclear cells (PBMC); test: BP2992 cytokine production from human PBMC; format: cell-based; conditions: 0.01-1 μg/ml, 24 h, two donors
Method: PBMC from two human donors (A and B) were treated with BP2992 (0.01-1 μg/ml), After 24 h, the concentrations of TNF-α in supernatants were determined by ELISA.

B1: BP1569: full length B. pertussis lipoprotein BP1569, ~40 kDa, TLR2 agonist (protein, listed as Bordetella pertussis)
chain: MRMNKRHAGASALMALALLAGCSDVNQLLGNEESVDYKSTRRGDPLSIPPDLTQANNDPRYKAPASGTATYSQFQQQGLQQQASAGQNTNVLPERADMRVERDGDLRWLVIERPPEQLFSKVVDFWTDTGFTVSVNNPQAGIIETDWAENRAKIPESWLRQVLGSVLETAWDSGEREKFRTRVERVNGHTEIYITHNQMLEKRVGSDGGQVQWTHGKEDPGLNAAMLARLMVYLGTDVDAARKLVAQAEAAPQAPKVQSVRAEGAMLVVDESFDRAWRRVGVALDSGGFAVDDRDRSAGEYFVRYVDTDTGAQNEQPGFFSRLFSSDKKAQAPQYRIRLTGSGTQTQVTVLDANGQRDSSATAQRMLSVLKDKMV
IL-6 production by DC [1]: induced robust
IL-12 production by DC [1]: induced robust
IL-23 production by DC [1]: induced robust
TNF-α production by DC [1]: induced robust
surface expression of CD80 [2]: enhanced
surface expression of CD86 [2]: enhanced
surface expression of MHC class II [2]: enhanced
BP1569-induced TNF-α production in the presence of the TLR2 blocking antibody [3]: completely abrogated
effect of lipase treatment on induced IL-6 production ([4]; 100 ng/ml on DC): abolished
effect of lipase treatment on induced IL-12p40 production ([4]; then DC stimulation): abolished
luciferase activity (NF-κB reporter) [5]: significant increase
IL-8 production [6]: increased
p38 phosphorylation ([7]; 15 minutes following stimulation): enhanced
p38 phosphorylation with anti-TLR2 blocking antibody ([7]; T2.5 2.5 μg/ml): inhibited
BP1569-induced IL-6 production with TLR1 blocking antibody [8]: significantly reduced
BP1569-induced IL-6 production with anti-TLR6 antibody [9]: little effect
serum IL-6 [10]: Significant concentrations
serum IL-12 [10]: Significant concentrations
BP1569-specific IFN-γ by lymph node cells ([11]; day 7, re-stimulated with BP1569 2 μg/ml): induced at significant levels
IFN-γ upon re-stimulation with heat killed B. pertussis ([11]; day 7 lymph node cells): produced IFN-γ

B2: BP2992: full length B. pertussis lipoprotein BP2992, ~16 kDa (protein, listed as Bordetella pertussis)
chain: NYMHSPSVVAGRARRLLAVAAVAGSVAVLAGCANPSASSGVYTYGQAQREQIVRTGTVTGVRPITIQNDKSSGVGLVAGGALGGVAGNAVGGGTGRTIATVGGVILGALAGNAIENRAGKSSGYEITVRLDNGETRVVAQEADVPISVGQRVQVISGAGPTRVTPY
ligand activity for TLR2 [12]: immunologically active ligand for TLR2
maturation of dendritic cells (MHC class II, CD80, CD86) ([13]; 100 ng/ml): induces
pro-inflammatory cytokine production by dendritic cells ([13]; 50, 100 and 1000 ng/ml): induces
TLR2 dependence of pro-inflammatory cytokine production by DCs (IL-6, TNF-α) [14]: in a TLR2 dependent manner
pro-inflammatory cytokine production (TNF-α) from human PBMC [15]: induces
